Source: PMC8807725, “EPHA2 mediates PDGFA activity and functions together with PDGFRA as prognostic marker and therapeutic target in glioblastoma” (Signal Transduction and Targeted Therapy, 2022)

Target: T1, recombinant human PDGF-AA (human, UniProt P04085 87-211)
T1 construct: Platelet-derived growth factor subunit A (PDGFA), human, recombinant homodimer PDGF-AA; Added to cells at 100 ng/ml; Commercial PDGF-AA is normally the mature chain; also called recombinant human PDGFA homodimer; source: recombinant human protein
Assay: ITC; Microcal iTC200; recombinant human receptor extracellular domain and recombinant human PDGF-AA
Settings: both partners purified

B1: recombinant human PDGFRA extracellular domain fused with IgG Fc (rhRA-ECD-Fc) (Fc fusion, UniProt P16234 24-528, looked up)
chain: QLSLPSILPNENEKVVQLNSSFSLRCFGESEVSWQYPMSEEESSDVEIRNEENNSGLFVTVLEVSSASAAHTGLYTCYYNHTQTEENELEGRHIYIYVPDPDVAFVPLGMTDYLVIVEDDDSAIIPCRTTDPETPVTLHNSEGVVPASYDSRQGFNGTFTVGPYICEATVKGKKFQTIPFNVYALKATSELDLEMEALKTVYKSGETIVVTCAVFNNEVVDLQWTYPGEVKGKGITMLEEIKVPSIKLVYTLTVPEATVKDSGDYECAARQATREVKEMKKVTISVHEKGFIEIKPTFSQLEAVNLHEVKHFVVEVRAYPPPRISWLKNNLTLIENLTEITTDVEKIQEIRYRSKLKLIRAKEEDSGHYTIVAQNEDAVKSYTFELLTQVPSSILDLVDDHHGSTGGQTVRCTAEGTPLPDIEWMICKDIKKCNNETSWTILANNVSNIITEIHSRDRSTVEGRVTFAKVEETIAVRCLAKNLLGAENRELKLVAPTLRSELTVA
notes: Platelet-derived growth factor receptor alpha (PDGFRA), human, extracellular domain; Species and subclass of the IgG Fc, construct limits and supplier are not in the main text; also called recombinant PDGFRA extracellular domain; source: recombinant human protein
  dH: -1070 ± 117
